Source: the supplement of paper PMC7877785
± gives the uncertainty stated by the source.

Test: self-splicing fitness, log relative to wild type (ln ratio); higher = more splicing; Tetrahymena group I intron in knt gene, E. coli kanamycin selection, DiMSum; sequences stand for … in CUCUCU…GGAGGGAAAAGUUAUCAGGCAUGCACCUGGUAGCUAGUCUUUAAACCAAUAGAUUGCAUCGGUUUAAAAGGCAAGACCGUCAAAUUGCGGGAAAGGGGUCAACAGCCGUUCAGUACCAAGUCUCAGGGGAAACUUUGAGAUGGCCUUGCAAAGGGUAUGGUAAUAAGCUGACGGACAUGGUCCUAACCACGCAGCCAAGUCCUAAGUCAACAGAUCUUCUGUUGAUAUGGAUGCAGUUCACAGACUAAAUGUCGGUCGGGGAAGAUGUAUUCUUCUCAUAAGAUAUAGUCGGACCUCUCCUUAAUGGGAGCUAGCGGAUGAAGUGAUGCAACACUGGAGCCGCUGGGAACUAAUUUGUAUGCGAAAGUAUAUUGAUUAGUUUUGGAGUACUCGUGGUCG
Method in brief: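 Colonies from six replicate transformations of E. coli BL21(DE3) were pooled and amplicon-sequenced on an Illumina HiSeq 2500. The library placed an intron with all eight P1ex-region nucleotides randomised inside the knt kanamycin-resistance gene on pET-22b(+), and cells grew overnight at 37°C or 30°C on LB agar with or without 25 μg/mL kanamycin (plus 100 μg/mL carbenicillin, 50 μM IPTG, 0.2% rhamnose). Fitness is the DiMSum error-weighted combination of wild-type-normalised replicate fold changes, kanamycin versus none.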

Sequence	self-splicing fitness (ln) (30 °C)	self-splicing fitness (ln) (37 °C)
UAAUAGCAAUAUUACGCGGC	-2.97 ± 0.36	-2.34 ± 0.37
UAAUAGCAAUAUUACGCGUA	-1.85 ± 0.14	-0.713 ± 0.12
UAAUAGCAAUAUUACGCUAU	-2.93 ± 0.19	-1.85 ± 0.21
UAAUAGCAAUAUUACGCUGG	-1.95 ± 0.14	-1.85 ± 0.16
UAAUAGCAAUAUUACGCUGU	-3.69 ± 0.28	-0.659 ± 0.17
UAAUAGCAAUAUUACGGCAC	-2.86 ± 0.22	-1.48 ± 0.19
UAAUAGCAAUAUUACGGUGC	–	-1.98 ± 0.36
UAAUAGCAAUAUUACGUAAA	-3.19 ± 0.2	-1.88 ± 0.19
UAAUAGCAAUAUUACGUAUA	-1.82 ± 0.17	-1.17 ± 0.17
UAAUAGCAAUAUUACGUCCA	-0.695 ± 0.1	-0.122 ± 0.11
UAAUAGCAAUAUUACGUGAA	-1.38 ± 0.1	-1.22 ± 0.14
UAAUAGCAAUAUUACGUGGC	-3.76 ± 0.35	-2.88 ± 0.43
UAAUAGCAAUAUUACGUUAU	-2.86 ± 0.21	-1.44 ± 0.19
UAAUAGCAAUAUUACGUUGC	-3.64 ± 0.23	-2.71 ± 0.31
UACAAGCAAUAUUACGAAUC	-3.62 ± 0.17	-2.7 ± 0.22
UACAAGCAAUAUUACGACCG	-0.233 ± 0.096	0.952 ± 0.13
UACAAGCAAUAUUACGACCU	-0.732 ± 0.068	-0.688 ± 0.086
UACAAGCAAUAUUACGAGAA	-2.1 ± 0.29	-2.42 ± 0.33
UACAAGCAAUAUUACGAGCU	-3.19 ± 0.12	-1.58 ± 0.11
UACAAGCAAUAUUACGAUCG	0.00344 ± 0.082	0.983 ± 0.11
UACAAGCAAUAUUACGCAAC	–	-2.36 ± 0.3
UACAAGCAAUAUUACGCAGU	-3.96 ± 0.27	-3.27 ± 0.21
UACAAGCAAUAUUACGCCAG	-1.5 ± 0.12	-1.81 ± 0.15
UACAAGCAAUAUUACGCCGA	-1.29 ± 0.1	-0.999 ± 0.11
UACAAGCAAUAUUACGCUAA	-1.95 ± 0.11	-1.35 ± 0.11

Sequence	self-splicing fitness (ln) (30 °C)	self-splicing fitness (ln) (37 °C)
UACAAGCAAUAUUACGCUUG	-3.1 ± 0.23	-2.79 ± 0.41
UACAAGCAAUAUUACGGAAU	-3.62 ± 0.24	-2.44 ± 0.25
UACAAGCAAUAUUACGGCAA	-0.904 ± 0.072	-0.0888 ± 0.088
UACAAGCAAUAUUACGGCAC	-1.64 ± 0.14	-0.345 ± 0.2
UACAAGCAAUAUUACGGGAC	-2.61 ± 0.16	-2.58 ± 0.17
UACAAGCAAUAUUACGGGCC	-3.08 ± 0.23	-2.55 ± 0.22
UACAAGCAAUAUUACGUGAU	-3.16 ± 0.14	-1.34 ± 0.14
UACAAGCAAUAUUACGUUAG	-3.02 ± 0.11	-2.11 ± 0.097
UACAAGCAAUAUUACGUUGA	-2.72 ± 0.17	-2.06 ± 0.15
UACAAGCAAUAUUACGUUGU	-3.58 ± 0.12	-2.99 ± 0.14
UACCAGCAAUAUUACGAACC	-3.08 ± 0.2	-1.05 ± 0.23
UACCAGCAAUAUUACGAAGC	-3.64 ± 0.25	-2.17 ± 0.18
UACCAGCAAUAUUACGAGCG	-0.124 ± 0.06	0.206 ± 0.075
UACCAGCAAUAUUACGAGGC	-4.87 ± 0.26	-2.23 ± 0.15
UACCAGCAAUAUUACGAUUU	-1.25 ± 0.076	-0.288 ± 0.075
UACCAGCAAUAUUACGCACG	0.061 ± 0.066	-0.903 ± 0.066
UACCAGCAAUAUUACGCCAU	-3.27 ± 0.22	-2.85 ± 0.16
UACCAGCAAUAUUACGCCGG	-3.31 ± 0.22	-3.14 ± 0.37
UACCAGCAAUAUUACGCUAU	-2.45 ± 0.11	-0.409 ± 0.089
UACCAGCAAUAUUACGGACA	-0.227 ± 0.061	0.423 ± 0.076
UACCAGCAAUAUUACGGACG	-0.177 ± 0.055	0.479 ± 0.088
UACCAGCAAUAUUACGGCAU	-1.37 ± 0.089	-0.029 ± 0.11
UACCAGCAAUAUUACGGCCU	-0.232 ± 0.078	0.212 ± 0.094
UACCAGCAAUAUUACGGCGC	-1.32 ± 0.073	-0.174 ± 0.097
UACCAGCAAUAUUACGGCUC	-0.179 ± 0.074	-0.0529 ± 0.096

Sequence	self-splicing fitness (ln) (30 °C)	self-splicing fitness (ln) (37 °C)
UACCAGCAAUAUUACGGCUU	-0.562 ± 0.061	0.59 ± 0.097
UACCAGCAAUAUUACGGGCA	-0.875 ± 0.054	0.469 ± 0.087
UACCAGCAAUAUUACGGUGU	-3.64 ± 0.14	-2.36 ± 0.13
UACCAGCAAUAUUACGGUUG	-1.64 ± 0.067	-0.791 ± 0.084
UACCAGCAAUAUUACGUACC	-2.33 ± 0.11	-2.23 ± 0.17
UACCAGCAAUAUUACGUAUA	-0.615 ± 0.058	-0.199 ± 0.072
UACCAGCAAUAUUACGUCAC	-4.46 ± 0.42	-2.32 ± 0.35
UACCAGCAAUAUUACGUGCA	-0.43 ± 0.065	0.246 ± 0.09
UACCAGCAAUAUUACGUUGC	-4.31 ± 0.32	-2.6 ± 0.25
UACGAGCAAUAUUACGACCG	-1.8 ± 0.45	–
UACGAGCAAUAUUACGAUAG	-3.66 ± 0.47	-2.31 ± 0.42
UACGAGCAAUAUUACGCAAA	-2.36 ± 0.28	-1.67 ± 0.47
UACGAGCAAUAUUACGCGAG	-2.49 ± 0.15	-0.597 ± 0.14
UACGAGCAAUAUUACGCGGG	-2.83 ± 0.22	-2.41 ± 0.45
UACGAGCAAUAUUACGCUGA	-3 ± 0.26	-2.02 ± 0.24
UACGAGCAAUAUUACGCUUG	-2.75 ± 0.32	–
UACGAGCAAUAUUACGGACC	-3.28 ± 0.24	-3.19 ± 0.43
UACGAGCAAUAUUACGGGUA	-1.64 ± 0.14	-1.43 ± 0.14
UACGAGCAAUAUUACGGUCA	-1.39 ± 0.11	-0.173 ± 0.11
UACGAGCAAUAUUACGGUGG	-3.62 ± 0.14	-2.13 ± 0.11
UACGAGCAAUAUUACGGUUG	-2.72 ± 0.13	-2.11 ± 0.16
UACGAGCAAUAUUACGUACC	–	-1.17 ± 0.36
UACGAGCAAUAUUACGUCCU	-2.87 ± 0.22	-1.38 ± 0.19
UACGAGCAAUAUUACGUGAG	-3.28 ± 0.16	-3.58 ± 0.24
UACGAGCAAUAUUACGUGCG	-3.07 ± 0.15	-1.97 ± 0.18

Sequence	self-splicing fitness (ln) (30 °C)	self-splicing fitness (ln) (37 °C)
UACGAGCAAUAUUACGUGUA	-3.39 ± 0.2	-2.21 ± 0.16
UACGAGCAAUAUUACGUUCG	-3.48 ± 0.25	-2.76 ± 0.25
UACGAGCAAUAUUACGUUUC	-2.65 ± 0.32	-1.69 ± 0.24
UACUAGCAAUAUUACGAAAA	-2.6 ± 0.35	-2.26 ± 0.42
UACUAGCAAUAUUACGAAGU	-3.85 ± 0.42	-2.32 ± 0.41
UACUAGCAAUAUUACGAGCA	-0.343 ± 0.12	0.447 ± 0.15
UACUAGCAAUAUUACGCAUA	-1.99 ± 0.14	-0.0544 ± 0.09
UACUAGCAAUAUUACGCGAU	-2.84 ± 0.18	-2.5 ± 0.18
UACUAGCAAUAUUACGCGUC	-2.73 ± 0.14	-1.81 ± 0.14
UACUAGCAAUAUUACGCGUG	-1.21 ± 0.079	-0.559 ± 0.089
UACUAGCAAUAUUACGCUGG	-4.47 ± 0.39	-1.78 ± 0.24
UACUAGCAAUAUUACGCUUG	-1.44 ± 0.1	-1.64 ± 0.14
UACUAGCAAUAUUACGCUUU	-2.09 ± 0.11	-2.16 ± 0.17
UACUAGCAAUAUUACGGACU	-0.895 ± 0.12	-0.214 ± 0.17
UACUAGCAAUAUUACGGCUC	-1.67 ± 0.19	-0.765 ± 0.18
UACUAGCAAUAUUACGGUGA	-1.54 ± 0.11	-0.0276 ± 0.12
UACUAGCAAUAUUACGUAAA	-1.66 ± 0.12	-0.614 ± 0.14
UACUAGCAAUAUUACGUCAC	-3.47 ± 0.26	–
UACUAGCAAUAUUACGUCCU	-1 ± 0.13	-1.26 ± 0.15
UACUAGCAAUAUUACGUCUU	-2.11 ± 0.13	-1.27 ± 0.14
UACUAGCAAUAUUACGUGCG	-0.684 ± 0.08	-1.31 ± 0.1
UACUAGCAAUAUUACGUGGU	-2.87 ± 0.14	-2.75 ± 0.17
